From the supplement of paper PMC7125110
± gives the standard error. For part of these data: This sample holds only a part of the variants without activity.

B1: glmS ribozyme (parent)
chain: AUAAAAGCGCCAGAACUACAGAAAUGUAGUUGACGAGGAGGAGGUUUAUCGAAUUUUCGGCGGAUGCCUCCAAA

Legend:
Settings in all cases: with glucosamine-6-phosphate
glucosamine-6-phosphate [1] = variants of: B1; test: kcat; higher = faster cleavage; RNA array
In short: (§1)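 Weighted Michaelis–Menten fits across concentrations supplied kcat and KM, based on kobs from one- or two-exponential decay fits to normalised per-tile medians. The data came from barcoded ribozyme variants transcribed in situ by E. coli RNA polymerase on sequenced MiSeq chips and tracked at 37 °C by a hybridised Cy3 probe. Glucosamine-6-phosphate (40 μM to 10 mM) in HEPES/KCl/Mg(OAc)2 buffer was flowed in.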

glucosamine-6-phosphate [2] = variants of: B1; test: KM; higher = weaker cofactor use; RNA array
In short: as §1

glucosamine-6-phosphate [3] = variants of: B1; test: self-cleavage kobs at 640 uM GlcN6P; higher = faster cleavage; RNA array
In short: as §1

glucosamine-6-phosphate [4] = variants of: B1; test: self-cleavage kobs at 2500 uM GlcN6P; higher = faster cleavage; RNA array
In short: as §1

glucosamine-6-phosphate [5] = variants of: B1; test: self-cleavage kobs at 10000 uM GlcN6P; higher = faster cleavage; RNA array
In short: as §1

glucosamine-6-phosphate [6] = variants of: B1; test: self-cleavage kobs at 40 uM GlcN6P; higher = faster cleavage; RNA array
In short: as §1

glucosamine-6-phosphate [7] = variants of: B1; test: self-cleavage kobs at 160 uM GlcN6P; higher = faster cleavage; RNA array
In short: as §1

Variant	kcat (glucosamine-6-phosphate [1])	KM (glucosamine-6-phosphate [2])	self-cleavage kobs at 640 uM GlcN6P (glucosamine-6-phosphate [3])	self-cleavage kobs at 2500 uM GlcN6P (glucosamine-6-phosphate [4])	self-cleavage kobs at 10000 uM GlcN6P (glucosamine-6-phosphate [5])	self-cleavage kobs at 40 uM GlcN6P (glucosamine-6-phosphate [6])	self-cleavage kobs at 160 uM GlcN6P (glucosamine-6-phosphate [7])
G29C U47C	0.000131 ± 7.3e-06 s⁻¹	1730 ± 250 µM	3.72e-05 ± 1.8e-05 s⁻¹	7.73e-05 ± 1.5e-05 s⁻¹	0.000112 ± 2.7e-05 s⁻¹	–	–
U30G G37C	1.26e-05 ± 3.7e-06 s⁻¹	–	–	–	–	< 1e-05 s⁻¹	–
A14G C50U	0.000229 ± 4.9e-05 s⁻¹	7960 ± 3000 µM	3.25e-05 ± 1.6e-05 s⁻¹	5.19e-05 ± 9.6e-06 s⁻¹	0.000128 ± 1.5e-05 s⁻¹	–	–
G13A C16U	0.000763 ± 9.4e-05 s⁻¹	2220 ± 460 µM	0.000172 ± 2.2e-05 s⁻¹	0.000459 ± 5.5e-05 s⁻¹	0.000577 ± 7.9e-05 s⁻¹	–	4.29e-05 ± 1.2e-05 s⁻¹
A39U U45G	0.00909 ± 0.0007 s⁻¹	2650 ± 300 µM	0.00165 ± 0.00028 s⁻¹	0.00481 ± 0.00079 s⁻¹	0.00711 ± 0.00075 s⁻¹	0.000146 ± 2e-05 s⁻¹	0.000471 ± 8.8e-05 s⁻¹
G44C A53C	6.93e-05 ± 2.5e-06 s⁻¹	2650 ± 300 µM	–	3.4e-05 ± 1e-05 s⁻¹	5.46e-05 ± 9.3e-06 s⁻¹	–	–
A12G U31A G32U	6.44e-05 ± 1.1e-06 s⁻¹	5790 ± 240 µM	–	–	4.08e-05 ± 1.1e-05 s⁻¹	–	–
A6G G37C	< 1e-05 s⁻¹	–	–	–	–	–	< 1e-05 s⁻¹
A48U U69C	0.000248 ± 8.5e-06 s⁻¹	1640 ± 120 µM	7.15e-05 ± 1e-05 s⁻¹	0.000147 ± 1.8e-05 s⁻¹	0.000215 ± 2.7e-05 s⁻¹	–	–
U31C U54A	0.00685 ± 0.0022 s⁻¹	2980 ± 1300 µM	0.00122 ± 0.00019 s⁻¹	0.00228 ± 0.00051 s⁻¹	0.006 ± 0.00078 s⁻¹	0.000119 ± 1.5e-05 s⁻¹	0.000268 ± 5.9e-05 s⁻¹
G32U G37A	4.33e-05 ± 1.3e-05 s⁻¹	–	–	–	3.21e-05 ± 6.6e-06 s⁻¹	–	–
G32A	0.00528 ± 0.00074 s⁻¹	4250 ± 750 µM	0.00064 ± 1.1e-05 s⁻¹	0.00219 ± 7.7e-05 s⁻¹	0.00372 ± 7.6e-05 s⁻¹	5.63e-05 ± 1.2e-06 s⁻¹	0.000185 ± 5.1e-06 s⁻¹
G13U U54A	0.00184 ± 0.00033 s⁻¹	2690 ± 770 µM	0.000283 ± 5.5e-05 s⁻¹	0.00105 ± 0.00017 s⁻¹	0.00144 ± 0.00015 s⁻¹	4.3e-05 ± 9.5e-06 s⁻¹	0.000103 ± 1.6e-05 s⁻¹
G9A C61U	0.000168 ± 1.3e-05 s⁻¹	1390 ± 290 µM	5.18e-05 ± 1.1e-05 s⁻¹	0.000144 ± 5.4e-05 s⁻¹	0.000146 ± 1.8e-05 s⁻¹	–	–
C50G G59U C68G	8.8e-05 ± 8.6e-06 s⁻¹	–	0.000101 ± 3e-05 s⁻¹	0.000102 ± 2.2e-05 s⁻¹	7.83e-05 ± 1.5e-05 s⁻¹	6.82e-05 ± 2.8e-05 s⁻¹	–
A6G A15C	7.64e-05 ± 3.5e-06 s⁻¹	1700 ± 240 µM	–	4.69e-05 ± 9.3e-06 s⁻¹	6.45e-05 ± 1.1e-05 s⁻¹	< 1e-05 s⁻¹	–

Variant	kcat (glucosamine-6-phosphate [1])	KM (glucosamine-6-phosphate [2])	self-cleavage kobs at 640 uM GlcN6P (glucosamine-6-phosphate [3])	self-cleavage kobs at 2500 uM GlcN6P (glucosamine-6-phosphate [4])	self-cleavage kobs at 10000 uM GlcN6P (glucosamine-6-phosphate [5])	self-cleavage kobs at 40 uM GlcN6P (glucosamine-6-phosphate [6])	self-cleavage kobs at 160 uM GlcN6P (glucosamine-6-phosphate [7])
G29U G60A	< 1e-05 s⁻¹	–	< 1e-05 s⁻¹	–	< 1e-05 s⁻¹	< 1e-05 s⁻¹	< 1e-05 s⁻¹
A15U C16G	0.00121 ± 0.00041 s⁻¹	2570 ± 1300 µM	0.000169 ± 5.1e-05 s⁻¹	0.000786 ± 0.0002 s⁻¹	0.000952 ± 0.00022 s⁻¹	2.88e-05 ± 1.4e-05 s⁻¹	8.8e-05 ± 1.9e-05 s⁻¹
G13A G29A	0.000248 ± 8.5e-06 s⁻¹	4980 ± 320 µM	–	8.32e-05 ± 1.2e-05 s⁻¹	0.000165 ± 2.4e-05 s⁻¹	–	–
C16G U56A	0.00335 ± 0.00047 s⁻¹	2810 ± 590 µM	0.000593 ± 0.00014 s⁻¹	0.00135 ± 0.00026 s⁻¹	0.00286 ± 0.00043 s⁻¹	5.21e-05 ± 9.6e-06 s⁻¹	0.000189 ± 6.3e-05 s⁻¹
A52U G59A C68G	< 1e-05 s⁻¹	–	–	–	–	–	–
U30G C58A	0.000335 ± 5.6e-05 s⁻¹	2550 ± 710 µM	7.21e-05 ± 8.3e-06 s⁻¹	0.000154 ± 1.8e-05 s⁻¹	0.000293 ± 5e-05 s⁻¹	–	–
G59U	5.77e-05 ± 1.4e-06 s⁻¹	1210 ± 130 µM	1.83e-05 ± 1.7e-06 s⁻¹	4.03e-05 ± 1.3e-06 s⁻¹	5.11e-05 ± 9.9e-07 s⁻¹	< 1e-05 s⁻¹	–
U31G G44U	0.000237 ± 6.3e-05 s⁻¹	8740 ± 3600 µM	–	4.98e-05 ± 1.3e-05 s⁻¹	0.000129 ± 3e-05 s⁻¹	–	–
U54C G63U	< 1e-05 s⁻¹	–	< 1e-05 s⁻¹	–	–	–	–
G41U U46A	0.000481 ± 0.0001 s⁻¹	2400 ± 860 µM	9.28e-05 ± 1.2e-05 s⁻¹	0.000324 ± 5.4e-05 s⁻¹	0.000362 ± 5.7e-05 s⁻¹	–	4.83e-05 ± 1.9e-05 s⁻¹
U45G U69G	0.000184 ± 5.8e-05 s⁻¹	–	–	–	0.000152 ± 3.8e-05 s⁻¹	–	–
U46A A53U	0.00158 ± 0.00035 s⁻¹	1520 ± 540 µM	0.000394 ± 5.6e-05 s⁻¹	0.000952 ± 0.00012 s⁻¹	0.00158 ± 0.00025 s⁻¹	5.78e-05 ± 1.1e-05 s⁻¹	0.000161 ± 3.2e-05 s⁻¹
G44U C71U	0.000114 ± 4.5e-05 s⁻¹	–	–	9.61e-05 ± 1.4e-05 s⁻¹	8.62e-05 ± 1.2e-05 s⁻¹	< 1e-05 s⁻¹	–
G13C A33G	< 1e-05 s⁻¹	–	< 1e-05 s⁻¹	–	< 1e-05 s⁻¹	–	–
A6C C68U	4.51e-05 ± 1.8e-06 s⁻¹	534 ± 140 µM	–	3.96e-05 ± 9.1e-06 s⁻¹	4.19e-05 ± 6.8e-06 s⁻¹	–	–
C50A A53G	2.89e-05 ± 3e-06 s⁻¹	–	–	3.53e-05 ± 1.5e-05 s⁻¹	2.62e-05 ± 9.1e-06 s⁻¹	–	–
